The text below walks through data of US20230203119A1 (IGM BIOSCIENCES, published 2023).

Experiment [1] has as its target T1, IL-15 receptor (β and γ subunits) on human CD8 T cells and NK cells (human, UniProt P14784 27-551; P31785 23-369).
T1 sequence (looked up) 1: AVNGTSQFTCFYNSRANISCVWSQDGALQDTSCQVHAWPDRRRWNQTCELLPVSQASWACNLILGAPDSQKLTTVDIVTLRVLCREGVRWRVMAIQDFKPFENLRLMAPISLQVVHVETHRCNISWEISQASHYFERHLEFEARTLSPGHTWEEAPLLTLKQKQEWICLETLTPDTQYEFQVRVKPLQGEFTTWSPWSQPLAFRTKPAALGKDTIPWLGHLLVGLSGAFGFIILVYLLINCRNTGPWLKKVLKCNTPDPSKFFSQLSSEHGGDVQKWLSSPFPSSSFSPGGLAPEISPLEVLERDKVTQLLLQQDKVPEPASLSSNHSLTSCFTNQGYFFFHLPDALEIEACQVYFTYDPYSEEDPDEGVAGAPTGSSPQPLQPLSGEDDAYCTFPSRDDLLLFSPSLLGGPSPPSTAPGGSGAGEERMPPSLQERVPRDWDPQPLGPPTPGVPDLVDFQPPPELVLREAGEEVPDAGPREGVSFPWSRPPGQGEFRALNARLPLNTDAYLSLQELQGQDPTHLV
T1 sequence (looked up) 2: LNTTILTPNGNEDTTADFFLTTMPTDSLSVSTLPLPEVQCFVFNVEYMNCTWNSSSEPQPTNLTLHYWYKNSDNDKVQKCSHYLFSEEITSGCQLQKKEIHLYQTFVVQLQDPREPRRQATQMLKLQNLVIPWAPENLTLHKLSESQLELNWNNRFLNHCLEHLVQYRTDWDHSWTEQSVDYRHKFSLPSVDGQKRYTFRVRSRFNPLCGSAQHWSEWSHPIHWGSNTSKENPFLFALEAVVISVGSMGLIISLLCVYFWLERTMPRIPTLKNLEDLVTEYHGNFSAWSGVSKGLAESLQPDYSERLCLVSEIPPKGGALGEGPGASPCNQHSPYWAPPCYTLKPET
The experiment is described as follows: cell-based or functional assay.

A further experiment concerns the target T2, PD-L1 (UniProt Q9NZQ7 19-238, limits assumed).
T2 construct: ELISA antigen; also called programmed cell death ligand-1 protein
Put plainly: ELISA on PD-L1. Background: In an ELISA, binding on a coated surface is turned into a signal by an enzyme label.

For experiment [2], the target named is T1, IL-15 receptor (β and γ subunits) on …. The experiment is described as follows: cell-based or functional assay. This is another data set of the same source.
For experiment [3] the target is unchanged. Put plainly: cell-based or functional assay. This is another data set of the same source.
Experiment [4] shares this target. The experiment is described as follows: cell-based or functional assay. This is another data set of the same source.
Experiment [5] has as its target T3, IL-15 receptor (β and γ subunits) on cynomolgus CD8 T cells (cynomolgus, UniProt Q38J85 27-551; A0A2K5VGJ6 23-369).
T3 sequence (looked up) 1: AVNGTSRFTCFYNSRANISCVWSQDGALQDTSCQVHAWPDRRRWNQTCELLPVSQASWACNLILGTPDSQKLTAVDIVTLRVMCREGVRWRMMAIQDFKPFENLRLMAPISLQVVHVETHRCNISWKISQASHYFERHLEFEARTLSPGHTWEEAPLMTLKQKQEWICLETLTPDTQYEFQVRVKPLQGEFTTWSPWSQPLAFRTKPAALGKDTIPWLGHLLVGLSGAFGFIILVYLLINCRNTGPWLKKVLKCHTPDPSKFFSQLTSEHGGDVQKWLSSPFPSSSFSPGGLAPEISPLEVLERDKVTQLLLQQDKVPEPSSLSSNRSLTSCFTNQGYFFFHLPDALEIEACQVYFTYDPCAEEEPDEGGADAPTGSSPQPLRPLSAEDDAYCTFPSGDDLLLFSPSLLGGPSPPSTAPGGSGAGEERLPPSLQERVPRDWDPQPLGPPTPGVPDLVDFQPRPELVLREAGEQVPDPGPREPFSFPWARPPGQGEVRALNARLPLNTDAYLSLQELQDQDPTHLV
T3 sequence (looked up) 2: T1 sequence (looked up) 2 with T14A, A16T, T22S, H141R, T228S, A326P
Put plainly: cell-based or functional assay.

The target of experiment [6] is T4, human PD-L1 expressed on HEK-293T cells (human, UniProt Q9NZQ7 19-290).
T4 construct: whole, on cells
T4 sequence (Q9NZQ7 19-290): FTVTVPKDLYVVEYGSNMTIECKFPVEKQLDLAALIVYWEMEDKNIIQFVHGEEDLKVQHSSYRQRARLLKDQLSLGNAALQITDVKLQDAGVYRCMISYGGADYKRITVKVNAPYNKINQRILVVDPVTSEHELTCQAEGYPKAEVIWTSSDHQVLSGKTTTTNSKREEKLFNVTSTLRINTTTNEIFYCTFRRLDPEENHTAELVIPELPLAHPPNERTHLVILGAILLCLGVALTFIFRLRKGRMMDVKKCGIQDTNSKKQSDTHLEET
The experiment is described as follows: high-throughput flow cytometry on HEK-293T cells expressing human PD-L1 and its alanine mutants. On the procedure:
The epitope that the 3C5 H2L2 (VH: SEQ ID NO: 91, VL: SEQ ID NO: 94) antibody binds to on human PD-L1 was mapped using Alanine-scanning mutagenesis. Epitope mapping was performed by constructing an Alanine scan library of human PD-L1 which was then expressed on HEK-293T cells. Binding of the 3C5 H2L2 F(ab′)2 to each HEK-293 transfected PD-L1 mutant version was evaluated by high-throughput flow cytometry.
A general note: Flow cytometry measures light scatter and fluorescence of single cells or particles in a stream.

Experiment [7] has as its target T1, IL-15 receptor (β and γ subunits) on …. The experiment is described as follows: cell-based or functional assay. This is another data set of the same source.

Substitutions are numbered along the chain they refer to. Numbers in names are those of the source. Some results are limits rather than exact numbers.

T2 sequence (Q9NZQ7 19-238 limits assumed): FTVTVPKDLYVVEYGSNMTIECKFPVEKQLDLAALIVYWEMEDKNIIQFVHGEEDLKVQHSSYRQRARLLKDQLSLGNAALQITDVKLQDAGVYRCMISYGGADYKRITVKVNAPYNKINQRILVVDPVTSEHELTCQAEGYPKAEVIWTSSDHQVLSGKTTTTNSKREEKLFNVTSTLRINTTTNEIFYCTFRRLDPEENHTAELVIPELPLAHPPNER

B1: 153 IgM + J*RI (anti-CD20 IgM antibody 153 with modified J-chain J*RI) (antibody)
VH: EVQLVQSGAEVKKPGESLKISCKGSGYSFTSYWIGWVRQMPGKGLEWMGIIYPGDSDTRYSPSFQGQVTISADKSITTAYLQWSSLKASDTAMYYCARHPSYGSGSPNFDYWGQGTLVTVSS
VL: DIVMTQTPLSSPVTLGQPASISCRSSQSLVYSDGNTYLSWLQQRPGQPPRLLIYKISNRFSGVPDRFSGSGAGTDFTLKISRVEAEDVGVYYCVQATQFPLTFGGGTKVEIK
chain: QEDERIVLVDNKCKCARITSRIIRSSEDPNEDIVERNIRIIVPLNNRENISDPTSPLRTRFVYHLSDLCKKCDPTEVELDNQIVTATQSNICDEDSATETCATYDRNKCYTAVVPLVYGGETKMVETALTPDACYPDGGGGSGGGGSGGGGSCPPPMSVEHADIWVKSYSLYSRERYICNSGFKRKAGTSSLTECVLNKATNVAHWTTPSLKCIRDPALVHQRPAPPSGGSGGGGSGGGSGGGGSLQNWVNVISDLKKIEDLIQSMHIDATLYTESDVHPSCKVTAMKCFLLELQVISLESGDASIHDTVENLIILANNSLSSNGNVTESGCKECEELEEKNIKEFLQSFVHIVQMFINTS
With B1, in experiment [1], the “CD8+ T cell proliferation (Ki-67) EC50” value turned out to be 0.64 nM.

B2: h3C5 IgM + J*RI (anti-PD-L1 IgM pentamer with modified J-chain J*RI) (antibody)
VH: QVQLQESGPGLVKPSETLSLTCTVSGFSLTSYDISWIRQPPGKGLEWIGVIWTGVGTNYNPSLKSRVTISVDTSKNQFSLKLSSVTAADTAVYYCARDPYYYGMDYWGQGTLVTVSS
VL: DIQMTQSPSSLSASVGDRVTITCRASQDISIWLSWYQQKPGKAPKLLIYKASNLHTGVPSRFSGSGSGTDFTLTISSLQPEDFATYYCLQSQSFPRTFGQGTKLEIK
chain: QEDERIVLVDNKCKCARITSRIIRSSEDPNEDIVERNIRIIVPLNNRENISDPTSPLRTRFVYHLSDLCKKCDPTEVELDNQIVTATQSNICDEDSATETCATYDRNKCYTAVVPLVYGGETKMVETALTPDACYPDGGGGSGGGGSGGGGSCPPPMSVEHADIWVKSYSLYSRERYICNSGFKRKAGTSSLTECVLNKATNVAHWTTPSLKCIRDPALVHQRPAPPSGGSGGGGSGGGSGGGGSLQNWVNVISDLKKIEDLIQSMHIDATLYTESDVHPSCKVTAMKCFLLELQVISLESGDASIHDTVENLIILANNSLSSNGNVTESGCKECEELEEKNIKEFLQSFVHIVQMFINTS
notes: IgM pentamer; Third chain is the modified J-chain J*RI (J* Y102A - IL-15Ralpha sushi - IL-15); also called H1-3C5 + J*RI; h3C5 + J*RI
On to B2, for which the Kd (usually the constant that tells how readily two partners part at equilibrium) with PD-L1 is 0.04 nM. Moreover, in experiment [1], the “CD8+ T cell proliferation (Ki-67) EC50” value was determined as 0.1 nM. Moreover, in experiment [2], the “CD8+ T cell proliferation (Ki-67) EC50, Donor 230” value is 0.31 nM and the “CD8+ T cell proliferation (Ki-67) EC50, Donor 403” value was 0.51 nM. Further, in experiment [3], the “NK cell proliferation (Ki-67) EC50, Donor 230” value amounted to 0.027 nM and the “NK cell proliferation (Ki-67) EC50, Donor 403” value worked out at 0.027 nM.

B3: h3C5 IgM + J* (anti-PD-L1 IgM pentamer with J-chain variant Y102A, no IL-15) (antibody)
VH: B2 VH
VL: B2 VL
chain: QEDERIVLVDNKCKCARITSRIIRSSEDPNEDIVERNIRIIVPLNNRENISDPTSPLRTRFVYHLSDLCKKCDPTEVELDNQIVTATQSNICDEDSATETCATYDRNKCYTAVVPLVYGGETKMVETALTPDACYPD
Take B3: in experiment [2], the “CD8+ T cell proliferation (Ki-67) EC50, Donor 230” value is over 80 nM and the “CD8+ T cell proliferation (Ki-67) EC50, Donor 403” value is over 80 nM. Also, in experiment [3], the “NK cell proliferation (Ki-67) EC50, Donor 230” value is over 80 nM and the “NK cell proliferation (Ki-67) EC50, Donor 403” value was over 80 nM.

B4: h3C5 IgM + JH (anti-PD-L1 IgM pentamer with J-chain fused to human serum albumin) (antibody)
VH: B2 VH
VL: B2 VL
chain: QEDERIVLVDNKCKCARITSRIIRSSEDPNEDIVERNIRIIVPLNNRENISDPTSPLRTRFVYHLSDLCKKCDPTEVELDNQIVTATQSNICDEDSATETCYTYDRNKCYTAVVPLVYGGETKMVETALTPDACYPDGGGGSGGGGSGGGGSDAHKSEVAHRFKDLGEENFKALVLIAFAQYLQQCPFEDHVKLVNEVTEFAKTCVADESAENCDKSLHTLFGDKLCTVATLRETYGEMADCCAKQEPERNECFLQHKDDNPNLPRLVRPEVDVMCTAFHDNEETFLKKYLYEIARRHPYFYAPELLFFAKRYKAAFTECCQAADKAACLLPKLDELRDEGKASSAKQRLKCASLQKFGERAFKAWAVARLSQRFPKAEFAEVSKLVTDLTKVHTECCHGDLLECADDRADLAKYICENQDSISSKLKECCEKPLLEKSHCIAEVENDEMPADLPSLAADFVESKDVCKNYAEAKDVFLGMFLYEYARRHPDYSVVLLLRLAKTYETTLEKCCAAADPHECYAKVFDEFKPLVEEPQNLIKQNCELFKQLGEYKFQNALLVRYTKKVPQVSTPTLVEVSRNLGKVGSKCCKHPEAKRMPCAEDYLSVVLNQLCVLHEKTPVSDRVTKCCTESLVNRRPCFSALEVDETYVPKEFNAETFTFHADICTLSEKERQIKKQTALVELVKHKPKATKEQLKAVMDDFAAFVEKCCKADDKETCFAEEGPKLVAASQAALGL
notes: IgM pentamer; Third chain is the modified J-chain J15HSA (no IL-15); also called H1-3C5 + JH; hu3C5+JH
In the experiment with PD-L1, B4 displayed a Kd of 0.05 nM. In addition, the “CD8+ T cell proliferation (Ki-67) EC50” value in experiment [1] is over 100 nM.

B5: h3C5 IgM + SJ*RI (anti-PD-L1 IgM pentamer with modified J-chain SP34 scFv-J*-R-I) (bispecific antibody)
VH: B2 VH
VL: B2 VL
chain: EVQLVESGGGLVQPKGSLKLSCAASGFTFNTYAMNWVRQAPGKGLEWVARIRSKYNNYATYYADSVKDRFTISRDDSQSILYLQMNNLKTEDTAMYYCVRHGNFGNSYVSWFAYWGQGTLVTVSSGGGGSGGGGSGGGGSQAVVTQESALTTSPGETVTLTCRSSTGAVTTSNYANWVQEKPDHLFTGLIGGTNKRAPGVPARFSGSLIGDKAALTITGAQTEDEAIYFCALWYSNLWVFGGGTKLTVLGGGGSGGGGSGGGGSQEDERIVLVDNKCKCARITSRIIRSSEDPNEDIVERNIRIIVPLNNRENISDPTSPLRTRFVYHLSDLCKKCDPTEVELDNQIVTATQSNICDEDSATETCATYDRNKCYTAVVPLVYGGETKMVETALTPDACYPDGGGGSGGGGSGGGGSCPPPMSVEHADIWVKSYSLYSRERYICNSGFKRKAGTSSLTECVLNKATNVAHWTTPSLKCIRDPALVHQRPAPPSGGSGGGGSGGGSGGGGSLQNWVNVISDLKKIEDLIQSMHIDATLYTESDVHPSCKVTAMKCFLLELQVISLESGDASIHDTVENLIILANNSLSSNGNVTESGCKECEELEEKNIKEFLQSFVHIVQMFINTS
As for B5, in experiment [2], the “CD8+ T cell proliferation (Ki-67) EC50, Donor 230” value came out at 0.03 nM and the “CD8+ T cell proliferation (Ki-67) EC50, Donor 403” value stood at 0.34 nM. For the same molecule, in experiment [3], the “NK cell proliferation (Ki-67) EC50, Donor 230” value was determined as 0.63 nM and the “NK cell proliferation (Ki-67) EC50, Donor 403” value is 0.71 nM.

B6: m3c5-J*RI (anti-PD-L1 human IgM pentamer with m3c5 VH/VL and modified J-chain J*RI) (antibody)
VH: QVQLKESGPGLVAPSQSLSITCTVSGFSLTSYDISWVRQPPGKGLEWLGVIWTGVGTNYNSAFMSRLSISKDNSKSQVFLKMNSLQTDDTAMYYCVRDPYYYGMDYWGQGTSVTVSS
VL: B2 VL with T5N, V15L, R18T, V19I, K42N, A43I, K45E, S60P, F83I, Q100G
chain: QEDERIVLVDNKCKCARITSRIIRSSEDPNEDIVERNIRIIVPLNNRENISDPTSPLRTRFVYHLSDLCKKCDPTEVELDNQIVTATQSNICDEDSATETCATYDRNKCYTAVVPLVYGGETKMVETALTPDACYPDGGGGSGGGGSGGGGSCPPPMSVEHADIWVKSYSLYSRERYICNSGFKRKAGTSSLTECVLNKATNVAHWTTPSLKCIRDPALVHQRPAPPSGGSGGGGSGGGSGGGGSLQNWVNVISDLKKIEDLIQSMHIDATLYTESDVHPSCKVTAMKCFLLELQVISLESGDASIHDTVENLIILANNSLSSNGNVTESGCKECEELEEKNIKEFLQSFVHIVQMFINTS
On to B6, for which the “human CD8+ T cell proliferation (Ki-67), average EC50” value in experiment [4] came to 3.22 nM. Besides, the “cynomolgus CD8+ T cell proliferation (Ki-67), average EC50” value in experiment [5] stood at 6.85 nM.

B7: 3C5 H2L2 F(ab')2 (antibody, V domains shown)
VH: B2 VH with I48L, V71K
VL: B2 VL with V19I
notes: Tested as F(ab')2; also called 3C5 Fab
Take B7: in experiment [6], the binding result is listed as “binds”.

B8: 3C5 IgM + J*RI-N4D/N65D (IL-15 double mutant N4D/N65D) (antibody)
VH: B2 VH
VL: B2 VL
chain: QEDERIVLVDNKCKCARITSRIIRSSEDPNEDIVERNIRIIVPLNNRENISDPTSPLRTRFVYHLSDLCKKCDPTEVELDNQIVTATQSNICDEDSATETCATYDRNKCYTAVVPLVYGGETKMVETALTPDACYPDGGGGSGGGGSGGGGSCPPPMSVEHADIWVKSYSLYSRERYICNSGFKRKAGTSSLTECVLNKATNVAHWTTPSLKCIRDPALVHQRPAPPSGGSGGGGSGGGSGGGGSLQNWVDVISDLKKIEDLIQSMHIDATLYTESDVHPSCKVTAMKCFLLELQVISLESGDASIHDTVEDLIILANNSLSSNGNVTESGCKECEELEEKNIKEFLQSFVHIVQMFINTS
With B8, in experiment [7], the “CD8+ T cell proliferation (Ki-67), potency against the constructs with WT IL-15” value amounted to 50 fold reduced potency and the “NK cell proliferation (Ki-67), potency against the constructs with WT IL-15” value was 100 fold reduced potency.

B9: KD-RI (anti-PD-L1 IgG with human IL-15Ralpha sushi domain and human IL-15 fused to its C-terminus) (antibody)
heavy: not shown
light: QSALTQPASVSGSPGQSITISCTGTSSDVGAYNYVSWYQQHPGKAPKLMIYDVSNRPSGVSNRFSGSKSGNTASLTISGLQAEDEADYYCSSYTSSSTRVFGTGTKVTVLGQPKANPTVTLFPPSSEELQANKATLVCLISDFYPGAVTVAWKADGSPVKAGVETTKPSKQSNNKYAASSYLSLTPEQWKSHRSYSCQVTHEGSTVEKTVAPTEC
notes: Heavy chain fusion protein and light chain as described in U.S. Pat. No. 10,407,502
In turn, B9 showed a dissociation constant Kd with PD-L1 of 1.33 nM. Besides, the “CD8+ T cell proliferation (Ki-67) EC50” value in experiment [1] was 0.51 nM.
